Laboratory results taken from patent US11723946B2, “Methods for regulating transcription of multiple genes and expression of multiple targets” (CHINA MEDICAL UNIVERSITY, priority 2014, dated 2023).

Experiments:
[1] = tested on: Muscle (IGF and adipocytokine signaling pathway genes); conditions: 2.5 mmol/kg daily, 7 days
Procedure: (§5) The wild-type FVB mice were divided into the control group and the experimental group, wherein the mice in the experimental group were daily administered with 20 μl peptide-containing solution that contains 2.5 mmol/kg of the present peptide for 7 days. Moreover, the mice in the control group were daily administrated with 20 μl PBS solution for 7 days.
(§6) After the daily administration, the tissues of column, muscle, fat pad, liver and kidney were collected for analyzing the expression of multiple targets by system biology analysis. Herein, the altered expressions of the targets in the genome were determined by using DNA microarray which is a well-established tool for systematic biology analysis. Furthermore, the results of the DNA microarray were further categorized and analyzed by bioinformatics analysis to determine the effect and affected signaling pathways of the present polypeptide.
(§7) (1) RNA preparation: The total RNA was extracted from the tissue by using RNeasy Mini Kit (Qiagen, Valencia, Calif., USA). The amount of the extracted total RNA was measured by Beckman DU800 spectrophotometer (Beckman Coulter, Fullerton, Calif., USA). In the next step, the quality of the RNA sample with A260/A280 ratio more than 1.8 was further evaluated by Agilent 2100 bioanalyzer (Agilent Technologies, Santa Clara, Calif., USA). When with the RNA integrity number of the sample is more than 8.0, it would be analyzed by the following microarray analysis.
(§8) (2) DNA microarray analysis: The procedure of DNA microarray analysis was conducted according to the reference (Cheng, 2007). Briefly, 5 μg of total RNA was amplified by in vitro transcription using MessageAmp™ aRNA kit (Ambion). In the following, the fluorescence dye, Cy5, was chemically labeled on the amplified RNA (aRNA). After the labeling, the fluorescence labeled aRNA was hybridized with Whole Genome OneArray™ in hybridization buffer (Phalanx Biotech Group, Taiwan) on cover slide. Following the hybridization reaction at 50° C. over-night, the non-specific binding on the chip was washed by three washing steps. The washed chip was dried by centrifugation and was scanned by Axon 4000 scanner (Molecular Devices, Sunnyvale, Calif., USA) to measure the fluorescence signals. The fluorescence intensity of Cy5 on each spots was further analyzed by genepix 4.1 (Molecular Devices). First, the signals of each spot were adjusted by deducting the intensity of background. In the next step, the spots including the probes of internal controls or the spots with the signal-to-noise ratios less than 0 would be removed. The qualified spots were normalized by limma package which is belonged to R console (Smyth, 2005).

[2] = Serological and biochemical analysis in NOD mice; assay type: in vivo; conditions: 20 weeks; for Creatinine in serum: control 0.70 ± 0.05; for BUN: control 40.50 ± 4.54
Procedure: (§1) 23 mice were divided into four groups with different administrations for 20 weeks, wherein 6 mice of the group 1 were control mice that were daily orally administrated with 20 μl of PBS. 6 mice of the group 2 were daily orally administrated with 20 μl of 0.01 umol/kg solution that contained the present polypeptide comprising the amino acid sequence of SEQ ID No. 1. 6 mice of the group 3 were daily orally administered with 20 μl of 0.1 umol/kg solution that contained the present polypeptide comprising the amino acid sequence of SEQ ID No. 1. 5 mice of the group 4 were daily orally administrated with 20 μl of 1 umol/kg solution that contained the present polypeptide comprising the amino acid sequence of SEQ ID No. 1.
(§2) During the administration period, the survival rate, incidence of diabetes and diabetes-induced retinopathy in the each group were measured and shown in table 5. After the administration, the blood samples were collected for serological and biochemical analysis.

NF-κB = assay: Ex vivo bioluminescent imaging of organs, LPS-induced NF-κB/luc transgenic mice; assay type: in vivo
Procedure: The mice of the three groups manipulated in example 3 were abdominally injected with 150 mg/Kg luciferin. After luciferin injection for 5 minutes, the mice were sacrificed and the tissues including brain, heart, lung, liver, spleen, stomach, kidney, ovary and intestine were rapidly removed. The collected tissues were placed in the IVIS Imaging System-200 Series (Xenogen, Hopkinton, Mass.) and imaged with the same setting used for in vivo bioluminescent imaging.
In the table 2, the average of luciferin value in the mice of the group 2 was divided to average of luciferin value in the mice of the group 1 to obtain the fold change. In table 3, the average of luciferin value in the mice of the group 3 was divided to the average of luciferin value in the mice of the group 2 to obtain the fold change.

[3] = Muscle histology (H&E) in genetic deficient mice; assay type: in vivo; conditions: 2.5 nmol/kg peritoneal twice a week, 4 weeks; vs control mice
Excerpt: Collecting the muscles from the mice of the both groups stated in example 5. The collected muscles were for histological examination. In the histology examination, the cell number and cellular size of the muscular tissue were examined by H&E staining and microscopy observation.

[4] = Fat accumulation in genetic deficient mice with massive abdominal fat; assay type: in vivo
Procedure: The mice were divided into control group and experimental group. […] In addition, the mice in the control group were peritoneally injections with 100 ul of PBS.
During the treatment period, the body weight and dietary intake of the mice were recorded at the regular time points. After the treatment, the gross views of whole animals were recorded by photographing. In the following, the fat pads of the mice were collected for the measurement of fat pad weight. The histological examination was performed to determine the number and size of the adipocytes in the mice of the both groups. Furthermore, the percentage of body fat was calculated according the formulation: (fat weight/body weight)×100%, and shown in table 4.

[5] = tested on: Fat pad (fatty acid metabolism genes); conditions: Up-regulated, 2.5 mmol/kg daily, 7 days
Procedure: as §5, §6, §7, §8

[6] = Survival, diabetes incidence and retinopathy in NOD mice; assay type: in vivo; conditions: 20 weeks; for Incidence of diabetes, mice/mice: control 2/6; for Diabetes-induced retinopathy, mice/mice: control 3/6; for Survival rate, mice/mice: control 4/6
Procedure: as §1, §2

[7] = Hepatic histology (H&E, oil red-O) in high fat diet mice; assay type: in vivo; conditions: 10 mmol/kg peritoneal injection twice weekly, 4 weeks, group 3 vs group 2
Procedure: (§3) 30 wild-type FVB mice were randomly divided into three groups, wherein the mice of the group 1 were the blank group that were fed with normal condition. The mice of the control group (the group 2) and the experimental group (the group 3) were fed with high fat diet. […] The mice in the group 2 and the group 3 were peritoneally injected with 100 μl of PBS.
(§4) After the administration, livers in the mice of the each group were collected for the histology sections. The hepatic histology of livers in the mice of the each group was […] for H&E staining and oil red-O staining to examined the lipid accumulation in liver, respectively. Furthermore, the product of lipid oxidation in hepatocytes was examined by IHC staining described in example 3 with antibodies against 4-hydroxynonenal ([…]) or malondialdehyde (MDA) on the hepatic tissues of the each group.

[8] = tested on: 4-hydroxynonenal, malondialdehyde; assay: IHC of lipid oxidation products in hepatic tissue, high fat diet mice; assay type: in vivo; conditions: 10 mmol/kg peritoneal injection twice weekly, 4 weeks, group 3 vs group 2
Procedure: as §3, §4

[9] = Adipocytokine signaling pathway, Down-regulated
[10] = IGF signaling pathway, Up-regulated
[11] = Group 2: 0.01 umol/kg daily oral
[12] = Group 3: 0.1 umol/kg daily oral
[13] = group 3 (LPS + 0.5 mg/Kg polypeptide IP) vs group 2 (LPS), down-regulation
[14] = group 3 (LPS + 0.5 mg/Kg polypeptide IP) vs group 2 (LPS), up-regulation
[15] = experimental group vs control group, in words

B1: present polypeptide: polypeptide comprising the amino acid sequence of SEQ ID No. 1; made by peptide synthesis, recombinant expression or extraction from Momordica charantia (peptide, listed as Artificial synthsis)
chain: SRCQGKSSWPQLVGSTGAAAKAWIERENPRVRAVIIKVGSGATKDFRCDRVRVWVTERGIVARPPTIG
Fold, Acsl1 [1, 9]: 4.56 folds
Fold, Akt1 [1, 9]: 1.57 folds
Fold, Cd36 [1, 9]: 2.42 folds
Fold, Nfkbia [1, 9]: 2.55 folds
Fold, Prkag1 [1, 9]: 1.93 folds
Fold, Ptpn11 [1, 9]: 2.31 folds
Fold, Stat3 [1, 9]: 1.55 folds
Fold, Adprt1 [1, 10]: Up-regulated 1.9 folds
Fold, Cabin1 [1, 10]: Up-regulated 2.4 folds
Fold, Igfbp5 [1, 10]: Up-regulated 1.9 folds
Fold, Irs1 [1, 10]: Up-regulated 3.7 folds
Fold, Map2k2 [1, 10]: Up-regulated 1.6 folds
Fold, Mdk [1, 10]: Up-regulated 3.4 folds
Fold, Mmp13 [1, 10]: Up-regulated 3.0 folds
Fold, Myh1 [1, 10]: Up-regulated 3.2 folds
Fold, Nfatc3 [1, 10]: Up-regulated 1.5 folds
Fold, Pik3r1 [1, 10]: Up-regulated 1.8 folds
Fold, Rps6kb1 [1, 10]: Up-regulated 4.7 folds
Fold, Spp1 [1, 10]: Up-regulated 3.6 folds
Fold, Twist 1 [1, 10]: Up-regulated 2.1 folds
Fold, Vegfa [1, 10]: Up-regulated 1.5 folds
Creatinine in serum [2, 11]: 0.64 ± 0.12 mg/dL
BUN [2, 11]: 37.38 ± 2.77 mg/dL
Creatinine in serum [2, 12]: 0.69 ± 0.06 mg/dL
BUN [2, 12]: 38.50 ± 4.69 mg/dL
Creatinine in serum ([2]; Group 4: 1 umol/kg daily oral): 0.69 ± 0.06 mg/dL
BUN ([2]; Group 4: 1 umol/kg daily oral): 35.88 ± 6.33 mg/dL
luminescent intensities detected from lung, liver, kidney and intestine (NF-κB; experimental group (group 3) compared with control group (group 2)): obviously decreased
Fold change of the luciferin value, Intestine (NF-κB; [13]): 1.96
Fold change of the luciferin value, Kidney (NF-κB; [13]): 1.08
Fold change of the luciferin value, Liver (NF-κB; [13]): 1.57
Fold change of the luciferin value, Lung (NF-κB; [13]): 1.68
Fold change of the luciferin value, Brain (NF-κB; [14]): 1.40
Fold change of the luciferin value, Heart (NF-κB; [14]): 1.13
Fold change of the luciferin value, Ovary (NF-κB; [14]): 1.17
Fold change of the luciferin value, Spleen (NF-κB; [14]): 1.08
Fold change of the luciferin value, Stomach (NF-κB; [14]): 1.11
muscular dystrophy (H&E histology of muscle) [3]: improved the muscular dystrophy
Fat weight ([4]; Experimental mice, 2.5 nmol/kg peritoneal twice a week, 4 weeks, control 2.53 ± 0.19): 1.90 ± 0.41 g
Body weight at end point ([4]; Experimental mice, 2.5 nmol/kg peritoneal twice a week, 4 weeks, control 71.95 ± 6.25): 72.54 ± 7.24 g
Body fat ([4]; Experimental mice, (fat weight/body weight)×100%, control 3.68 ± 0.16): 2.74 ± 0.21%
fat weight compared with control group [4, 15]: obviously decreased
percentage of body fat compared with control group [4, 15]: obviously decreased
Fold, Acox1 [5]: Up-regulated 2.0 folds
Fold, Acsl4 [5]: Up-regulated 5.1 folds
Fold, Cpt1a [5]: Up-regulated 3.1 folds
Fold, Cpt2 [5]: Up-regulated 1.5 folds
Fold, Hsd17b4 [5]: Up-regulated 1.7 folds
Fold, Sirt1 [5]: Up-regulated 3.0 folds
Incidence of diabetes, mice/mice [6, 11]: 0/6
Diabetes-induced retinopathy, mice/mice [6, 11]: 0/6
Survival rate, mice/mice [6, 11]: 6/6
Incidence of diabetes, mice/mice [6, 12]: 0/6
Diabetes-induced retinopathy, mice/mice [6, 12]: 1/6
Survival rate, mice/mice [6, 12]: 6/6
Incidence of diabetes, mice/mice ([6]; Group 4: 1 umol/kg daily oral): 1/5
Diabetes-induced retinopathy, mice/mice ([6]; Group 4: 1 umol/kg daily oral): 1/5
Survival rate, mice/mice ([6]; Group 4: 1 umol/kg daily oral): 5/5
lipid accumulation in the liver [7]: less lipid accumulation
products of lipid oxidation (HNE, MDA) in hepatic tissue [8]: obviously decreased
